This is an account of results in patent publication US20050069569A1.

Where two headings read alike, the source gives them in different places.

The target in series [1] is secPHEX (soluble, secreted form of recombinant human PHEX) (human) (UniProt P78562). Nature of the series: cell-based or functional assay.
Series [2] deals with T1, PTHrP107-139 (human).
T1 sequence: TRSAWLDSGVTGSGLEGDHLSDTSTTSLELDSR

In series [3] the target is T2, PTHrP107-139 (human).
T2 chain: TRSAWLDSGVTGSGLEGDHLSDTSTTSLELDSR

Turning to “osteocalcin (human, extracted from bones, with Gla residues) (from UniProt P02818 52-100)”, in series [1], the 50% inhibition of secPHEX-mediated PTHrP107-139 hydrolysis (HPLC) was determined as 3.6 µM and the inhibition of secPHEX activity at 5×10^-6 M osteocalcin came to 75%.

“secPHEX (soluble, secreted form of recombinant human PHEX)”: the “degradation of PTHrP107-139 (HPLC)” value in the series with PTHrP107-139 (human) [2] is “approximately 75 to 80% degradation of the peptide was observed”.

B1: secPHEXE581V (inactive soluble human PHEX with Glu 581 replaced by Val) (protein)
chain: QGLLSLQAKQEYCLKPECIEAAAAILSKVNLSVDPCDNFFRFACDGWISNNPIPEDMPSYGVYPWLRHNVDLKLKELLEKSISRRRDTEAIQKAKILYSSCMNEKAIEKADAKPLLHILRHSPFRWPVLESNIGPEGVWSERKFSLLQTLATFRGQYSNSVFIRLYVSPDDKASNEHILKLDQATLSLAVREDYLDNSTEAKSYRDALYKFMVDTAVLLGANSSRAEHDMKSVLRLEIKIAEIMIPHENRTSEAMYNKMNISELSAMIPQFDWLGYIKKVIDTRLYPHLKDISPSENVVVRVPQYFKDLFRILGSERKKTIANYLVWRMVYSRIPNLSRRFQYRWLEFSRVIQGTTTLLPQWDKCVNFIESALPYVVGKMFVDVYFQEDKKEMMEELVEGVRWAFIDMLEKENEWMDAGTKRKAKEKARAVLAKVGYPEFIMNDTHVNEDLKAIKFSEADYFGNVLQTRKYLAQSDFFWLRKAVPKTEWFTNPTTVNAFYSASTNQIRFPAGELQKPFFWGTEYPRSLSYGAIGVIVGHVFTHGFDNNGRKYDKNGNLDPWWSTESEEKFKEKTKCMINQYSNYYWKKAGLNVKGKRTLG
Turning to B1, the “degradation of PTHrP107-139 (HPLC)” value with PTHrP107-139 (human) [3] was “purified secPHEXE581V failed to degrade PTHrP107-139 under similar conditions”.
